Molecular target: T1, Escherichia coli β-galactosidase (E. coli, UniProt P00722 = β-galactosidase)
T1 construct: β-galactosidase of E. coli, encoded by lacZ; Wild-type commercial enzyme; source: bought: Sigma catalog no; G3153
Experiment: cryo-EM structure; β-gal mixed with scFv13R4 in a 1:10 stoichiometric ratio (2.5-fold excess), 1 hr on ice; single-particle cryo-EM, map at ~13 Å; rigid-body docking of β-gal (1F4A) and of the HyHEL-10 Fv (3A6B)
Settings: both partners purified

T1 sequence (P00722 whole entry): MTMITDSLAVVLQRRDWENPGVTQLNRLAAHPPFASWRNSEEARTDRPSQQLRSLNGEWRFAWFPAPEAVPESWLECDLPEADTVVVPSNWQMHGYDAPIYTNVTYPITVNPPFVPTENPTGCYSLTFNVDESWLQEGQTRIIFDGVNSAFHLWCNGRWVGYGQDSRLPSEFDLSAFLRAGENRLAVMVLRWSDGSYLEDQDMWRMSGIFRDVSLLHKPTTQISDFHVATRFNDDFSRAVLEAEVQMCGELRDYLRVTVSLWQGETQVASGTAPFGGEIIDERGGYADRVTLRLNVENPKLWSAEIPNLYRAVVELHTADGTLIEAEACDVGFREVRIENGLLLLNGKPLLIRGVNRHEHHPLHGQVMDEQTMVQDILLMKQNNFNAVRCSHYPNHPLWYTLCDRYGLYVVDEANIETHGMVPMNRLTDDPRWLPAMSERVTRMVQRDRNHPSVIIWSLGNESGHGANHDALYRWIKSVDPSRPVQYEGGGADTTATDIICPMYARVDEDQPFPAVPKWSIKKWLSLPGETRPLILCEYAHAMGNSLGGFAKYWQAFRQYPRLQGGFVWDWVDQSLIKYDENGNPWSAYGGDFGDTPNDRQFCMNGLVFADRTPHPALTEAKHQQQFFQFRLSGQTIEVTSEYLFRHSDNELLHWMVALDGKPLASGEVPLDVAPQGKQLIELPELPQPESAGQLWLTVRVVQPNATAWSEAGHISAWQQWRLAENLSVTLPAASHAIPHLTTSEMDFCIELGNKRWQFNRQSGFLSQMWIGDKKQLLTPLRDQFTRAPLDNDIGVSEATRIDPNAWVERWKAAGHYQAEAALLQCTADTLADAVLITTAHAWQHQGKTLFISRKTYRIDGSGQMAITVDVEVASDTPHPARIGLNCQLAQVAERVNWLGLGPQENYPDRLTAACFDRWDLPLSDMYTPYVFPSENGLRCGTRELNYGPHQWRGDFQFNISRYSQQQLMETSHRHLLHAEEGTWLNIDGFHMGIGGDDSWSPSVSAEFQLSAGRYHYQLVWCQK

B1: scFv13R4 (scFv, V domains shown)
VH: EVQLVESGGSLVKPGGSLRLSCAASGFTFSNYSMNWVRQAPGKGLEWISSISGSSRYIYYADFVKGRFTISRDNATNSLYLQMNSLRAEDTAVYYCVRSSITIFGGGMDVWGRGTLVTVSS
VL: QSVLTQPASVSGSPGQSITISCAGTSSDVGGYNYVSWYQQHPGKAPKLMIYEDSKRPSGVSNRFSGSKSGNTASLTISGLQAEDEADYYCSSYTTRSTRVFGGGTKLAVL
notes: model of the complex deposited as PDB 4CKD, built by docking the HyHEL-10 Fv of PDB 3A6B; 28 kDa single-chain Fv selected for cytoplasmic expression (Martineau et al., 1998); The preparation held GroEL as an impurity; also called Fv antibody; source: E. coli strain PM12 (BL21 (DE3) pLysS with a lacZ:Tn5 mutation), pET 16b, purified (nickel-nitrilotriacetic acid column)
Question: How did the “stoichiometry N” value turn out when B1 was run?
Answer: Its value is 1 Fv per β-gal subunit.

From article PMC3988998, “Molecular Mechanism of Antibody-Mediated Activation of β-galactosidase” (Structure(London, England:1993), 2014)
